Experimental data from US20110152176A1, “AGR-MEDIATED INHIBITION AND DISPERSAL OF BIOFILMS” (priority 2008, published 2011).

Tests used:
[1] = tested on: S. aureus SH1000 biofilm; test: Flow cell biofilm detachment (CLSM, COMSTAT biomass, effluent CFU); type: cell-based, Staphylococcus aureus; conditions: SH1000 2-day biofilm, proteinase K 2 mg/mL
Experimental: (§1) Biofilm experiments. Microtiter plate biofilms were performed as described (Shanks et al., 2005) except that the plates were incubated at 37° C. with shaking at 200 rpm for 12 hours. For flow cell experiments, AIPs were generated using the DnaB intein method, and the AIP concentrations were determined as previously described (Malone et al., 2007). AIPs stocks (20 mM) were stored in 100 mM phosphate (pH 7), 50 mM NaC1, 1 mM tris(2-carboxyethyl) phosphine (TCEP) and were diluted into the biofilm flow medium to a final concentration of 50 nM. When required, […] of erythromycin and/or chloramphenicol were added to the flow cell media to maintain plasmids. The growth medium for flow cell biofilms consisted of 2% TSB plus 0.2% glucose unless otherwise indicated. Flow cell biofilm experiments and confocal microscopy were performed as previously described (Yarwood et al., 2004). […] Biofilm biomass was quantified with the COMSTAT program (Heydorn et al., 2000) and percent biomass detached was calculated by subtracting biomass present at day 4 from day 2. To quantitate the number of bacteria detaching from a biofilm, 1 ml of flow cell effluent was collected on ice at indicated time points. […]
AIP detaches S. aureus biofilms. […] To confirm that AIP-I caused detachment, the inventors counted viable S. aureus cells in the effluent media (FIG. 2C). […]

[2] = tested on: SH1000 biofilm; test: Microtiter plate biofilm formation; type: cell-based, Staphylococcus aureus; conditions: proteinase K added to SH1000 (data not shown)
Experimental: as §1, with “2004). Flow cells were inoculated with overnight cultures diluted 1:100 in sterile water and laminar flow ([…]) was initiated after one hour incubation.” for “2004).”

B1: proteinase K: protease enzyme (Sigma-Aldrich) suspended in water and added to the media reservoir (protein, UniProt P06873 106-384, looked up)
Proteinase K: AAQTNAPWGLARISSTSPGTSTYYYDESAGQGSCVYVIDTGIEASHPEFEGRAQMVKTYYYSSRDGNGHGTHCAGTVGSRTYGVAKKTQLFGVKVLDDNGSGQYSTIIAGMDFVASDKNNRNCPKGVVASLSLGGGYSSSVNSAAARLQSSGVMVAVAAGNNNADARNYSPASEPSVCTVGASDRYDRRSSFSNYGSVLDIFGPGTSILSTWIGGSTRSISGTSMATPHVAGLAAYLMTLGKTTAASACRYIADTANKGDLSNIPFGTVNLLAYNNYQA
[1]
  biofilm detachment observed by CLSM: rapid detachment over 12 hrs
[2]
  biofilm development in microtiter plate: biofilms were unable to develop
